Our source for the Kcat and Km values is patent US8067220B2, “Alternative crystal form of monoacylglycerol lipase (MGLL)” (Janssen Pharmaceutica N.V., priority 2008, dated 2011).

The Km is the substrate concentration at which the rate is half of its maximum.

The data set has as its system MGLL. As to the kind of experiment: Michaelis-Menten kinetics, hydrolysis of 4-methylcoumarin butyrate (4MC-B). The format is biochemical, human. Particulars: substrate 4MC-B; 4-5 nM MGLL, 20 mM Pipes pH 7, 150 mM NaCl, 37° C.; average of 2 or 4 assays. The text has this:
A small fluorescent substrate, 4-methyl coumarin butyrate (4MC-B) was used to compare the activity of the engineered mutants to the activity of wt-MGLL (hMGLL 1-303) (SEQ ID NO: 3). The catalytic efficiency (kcat/KM) for the hydrolysis of the 4MC-B was similar for wt-MGLL (hMGLL 1-303) (SEQ ID NO: 3) and all MGLL mutants tested (Table 2). A larger more aliphatic fluorescent substrate, Coumarin Arachidonate (C-A), structurally more closely related to the MGLL natural substrate, 2-AG, was used to compare the activity of wt-MGLL (hMGLL 1-303) (SEQ ID NO: 3) to TEV protease cleaved mut-MGLL (hMGLL 1-303 L169S, L176S) (SEQ ID NO: 5).
The Michaelis-Menten parameters for the hydrolysis of 4-methylcoumarin butyrate (4MC-B) and coumarin arachidonate (C-A) substrate were determined using 4-5 nM of MGLL in 20 mM Pipes pH 7 and 150 mM NaCl at 37° C. The change in fluorescence due to substrate hydrolysis was monitored using excitation/emission wavelengths of 335/440 in a Safire II instrument from Tecan. The hyperbolic rates versus substrate concentration curves for the hydrolysis of 4MC-B were fit to the Michaelis-Menten equation using Excel.

Positions count from the first letter of the chain named. Names and notes keep the numbering of the source.

B1: mut-MGLL 1-303, L169S, L176S, K36A: human MGLL 1-303 with cap mutations L169S, L176S and surface mutation K36A (protein)
chain: GMPEESSPRRTPQSIPYQDLPHLVNADGQYLFCRYWAPTGTPKALIFVSHGAGEHSGRYEELARMLMGLDLLVFAHDHVGHGQSEGERMVVSDFHVFVRDVLQHVDSMQKDYPGLPVFLLGHSMGGAIAILTAAERPGHFAGMVLISPLVLANPESATTFKVLAAKVLNSVLPNLSSGPIDSSVLSRNKTEVDIYNSDPLICRAGLKVCFGIQLLNAVSRVERALPKLTVPFLLLQGSADRLCDSKGAYLLMELAKSQDKTLKIYEGAYHVLHKELPEVTNSVFHEINMWVSQRTATAGTASPP
As to B1, the Kcat was found to be 0.85 s⁻¹ and the Michaelis-Menten constant (Km) worked out at 124 µM.

B2: mut-MGLL 1-303, L171Q: human MGLL 1-303 with cap-domain mutation L171Q (protein, UniProt Q99685 1-303, looked up, variant L171Q)
Monoglyceride lipase: MPEESSPRRTPQSIPYQDLPHLVNADGQYLFCRYWKPTGTPKALIFVSHGAGEHSGRYEELARMLMGLDLLVFAHDHVGHGQSEGERMVVSDFHVFVRDVLQHVDSMQKDYPGLPVFLLGHSMGGAIAILTAAERPGHFAGMVLISPLVLANPESATTFKVLAAKVLNLVQPNLSLGPIDSSVLSRNKTEVDIYNSDPLICRAGLKVCFGIQLLNAVSRVERALPKLTVPFLLLQGSADRLCDSKGAYLLMELAKSQDKTLKIYEGAYHVLHKELPEVTNSVFHEINMWVSQRTATAGTASPP
For B2, the Kcat worked out at 0.85 s⁻¹ and the Km came to 105 µM.

B3: mut-MGLL.1-303, L169S, L176S, K165A: human MGLL 1-303 with L169S, L176S and surface mutation K165A (protein)
chain: B2 Monoglyceride lipase with K165A, L169S, Q171L, L176S
With B3, the Kcat was 0.45 s⁻¹ and the Michaelis constant (Km) was found to be 137 µM.

B4: mut-MGLL.1-303, L169S, L176S, K160A: human MGLL 1-303 with L169S, L176S and surface mutation K160A (protein)
chain: B2 Monoglyceride lipase with K160A, L169S, Q171L, L176S
Regarding B4, the Kcat is 0.5 s⁻¹ and the Km amounted to 90 µM.

B5: mut-MGLL 1-303, L169S, L176S, K36A, K226A: human MGLL 1-303 with L169S, L176S and surface mutations K36A, K226A (protein)
chain: B2 Monoglyceride lipase with K36A, L169S, Q171L, L176S, K226A
In the case of B5, the Kcat was found to be 0.5 s⁻¹ and the Michaelis constant (Km) is 123 µM.

B6: mut-MGLL. 1-303, L167Q, L174Q: human MGLL 1-303 with cap-domain mutations L167Q, L174Q (protein, UniProt Q99685 1-303, looked up, variant L167Q L174Q)
Monoglyceride lipase: B2 Monoglyceride lipase with L167Q, Q171L, L174Q
Take B6: the Kcat was 1.17 s⁻¹ and the Km was determined as 84 µM.

B7: mut-MGLL 1-303, L167Q, L171Q: human MGLL 1-303 with cap-domain mutations L167Q, L171Q (protein, UniProt Q99685 1-303, looked up, variant L167Q L171Q)
Monoglyceride lipase: B2 Monoglyceride lipase with L167Q
In the case of B7, the Kcat is 0.983 s⁻¹ and the Michaelis constant (Km) was 84 µM.

B8: mut-MGLL 1-303, L171Q, L174Q: human MGLL 1-303 with cap-domain mutations L171Q, L174Q (protein, UniProt Q99685 1-303, looked up, variant L171Q L174Q)
Monoglyceride lipase: B2 Monoglyceride lipase with L174Q
With B8, the Kcat is 0.783 s⁻¹ and the Km turned out to be 89 µM.

B9: mut-MGLL 1-303, L169S, L176S, K226A: human MGLL 1-303 with L169S, L176S and surface mutation K226A (protein)
chain: B2 Monoglyceride lipase with L169S, Q171L, L176S, K226A
For the molecule B9, the Kcat came out at 0.633 s⁻¹ and the Km is 110 µM.

B10: mut-MGLL 9-303, L169S, L176S: N-terminally truncated human MGLL 9-303 with L169S, L176S (protein, UniProt Q99685 9-303, looked up, variant L169S L176S)
chain: RTPQSIPYQDLPHLVNADGQYLFCRYWKPTGTPKALIFVSHGAGEHSGRYEELARMLMGLDLLVFAHDHVGHGQSEGERMVVSDFHVFVRDVLQHVDSMQKDYPGLPVFLLGHSMGGAIAILTAAERPGHFAGMVLISPLVLANPESATTFKVLAAKVLNSVLPNLSSGPIDSSVLSRNKTEVDIYNSDPLICRAGLKVCFGIQLLNAVSRVERALPKLTVPFLLLQGSADRLCDSKGAYLLMELAKSQDKTLKIYEGAYHVLHKELPEVTNSVFHEINMWVSQRTATAGTASPP
For the molecule B10, the Kcat is 0.45 s⁻¹ and the Michaelis-Menten constant (Km) was determined as 88 µM.

B11: mut-MGLL 9-297, L169S, L176S: truncated human MGLL 9-297 with L169S, L176S (protein, UniProt Q99685 9-297, looked up, variant L169S L176S)
chain: RTPQSIPYQDLPHLVNADGQYLFCRYWKPTGTPKALIFVSHGAGEHSGRYEELARMLMGLDLLVFAHDHVGHGQSEGERMVVSDFHVFVRDVLQHVDSMQKDYPGLPVFLLGHSMGGAIAILTAAERPGHFAGMVLISPLVLANPESATTFKVLAAKVLNSVLPNLSSGPIDSSVLSRNKTEVDIYNSDPLICRAGLKVCFGIQLLNAVSRVERALPKLTVPFLLLQGSADRLCDSKGAYLLMELAKSQDKTLKIYEGAYHVLHKELPEVTNSVFHEINMWVSQRTATA
As to B11, the Kcat came to 0.433 s⁻¹ and the Km came out at 126 µM.
